Measured values: patent US20260015399A1 (Boehringer Ingelheim, published 2026)
*1 amine or outer side, *2 acyl side, *3 side chain or, on linkers, in order; H or OH if unused. Side-chain parts run from the residue outwards. The star is where a group is joined. C18 diacid = O=C(O)CCCCCCCCCCCCCCCCC(=O)*; γGlu = O=C(O)[C@H](CCC(=O)[*:2])N[*:1]; Isovaleryl = CC(C)CC(=O)*; Ahx = NCCCCCC(=O)O

B1: Compound 9 (peptide)
peptide: Isovaleryl-APEK([Ahx-γGlu-C18 diacid])PEEQATPEELQRYYVSLRHYYNWLTRQRY-NH2
SMILES: CC(C)CC(=O)N[C@@H](C)C(=O)N1CCC[C@H]1C(=O)N[C@@H](CCC(=O)O)C(=O)N[C@@H](CCCCNC(=O)CCCCCNC(=O)CC[C@H](NC(=O)CCCCCCCCCCCCCCCCC(=O)O)C(=O)O)C(=O)N1CCC[C@H]1C(=O)N[C@@H](CCC(=O)O)C(=O)N[C@@H](CCC(=O)O)C(=O)N[C@@H](CCC(N)=O)C(=O)N[C@@H](C)C(=O)N[C@H](C(=O)N1CCC[C@H]1C(=O)N[C@@H](CCC(=O)O)C(=O)N[C@@H](CCC(=O)O)C(=O)N[C@@H](CC(C)C)C(=O)N[C@@H](CCC(N)=O)C(=O)N[C@@H](CCCNC(=N)N)C(=O)N[C@@H](Cc1ccc(O)cc1)C(=O)N[C@@H](Cc1ccc(O)cc1)C(=O)N[C@H](C(=O)N[C@@H](CO)C(=O)N[C@@H](CC(C)C)C(=O)N[C@@H](CCCNC(=N)N)C(=O)N[C@@H](Cc1c[nH]cn1)C(=O)N[C@@H](Cc1ccc(O)cc1)C(=O)N[C@@H](Cc1ccc(O)cc1)C(=O)N[C@@H](CC(N)=O)C(=O)N[C@@H](Cc1c[nH]c2ccccc12)C(=O)N[C@@H](CC(C)C)C(=O)N[C@H](C(=O)N[C@@H](CCCNC(=N)N)C(=O)N[C@@H](CCC(N)=O)C(=O)N[C@@H](CCCNC(=N)N)C(=O)N[C@@H](Cc1ccc(O)cc1)C(N)=O)[C@@H](C)O)C(C)C)[C@@H](C)O
B2: Compound 19 (peptide)
peptide: Isovaleryl-APEK([Ahx-γGlu-C18 diacid])PEEDATEEELQRYYVSLRHYYNWLTRQRY-NH2
SMILES: CC(C)CC(=O)N[C@@H](C)C(=O)N1CCC[C@H]1C(=O)N[C@@H](CCC(=O)O)C(=O)N[C@@H](CCCCNC(=O)CCCCCNC(=O)CC[C@H](NC(=O)CCCCCCCCCCCCCCCCC(=O)O)C(=O)O)C(=O)N1CCC[C@H]1C(=O)N[C@@H](CCC(=O)O)C(=O)N[C@@H](CCC(=O)O)C(=O)N[C@@H](CC(=O)O)C(=O)N[C@@H](C)C(=O)N[C@H](C(=O)N[C@@H](CCC(=O)O)C(=O)N[C@@H](CCC(=O)O)C(=O)N[C@@H](CCC(=O)O)C(=O)N[C@@H](CC(C)C)C(=O)N[C@@H](CCC(N)=O)C(=O)N[C@@H](CCCNC(=N)N)C(=O)N[C@@H](Cc1ccc(O)cc1)C(=O)N[C@@H](Cc1ccc(O)cc1)C(=O)N[C@H](C(=O)N[C@@H](CO)C(=O)N[C@@H](CC(C)C)C(=O)N[C@@H](CCCNC(=N)N)C(=O)N[C@@H](Cc1c[nH]cn1)C(=O)N[C@@H](Cc1ccc(O)cc1)C(=O)N[C@@H](Cc1ccc(O)cc1)C(=O)N[C@@H](CC(N)=O)C(=O)N[C@@H](Cc1c[nH]c2ccccc12)C(=O)N[C@@H](CC(C)C)C(=O)N[C@H](C(=O)N[C@@H](CCCNC(=N)N)C(=O)N[C@@H](CCC(N)=O)C(=O)N[C@@H](CCCNC(=N)N)C(=O)N[C@@H](Cc1ccc(O)cc1)C(N)=O)[C@@H](C)O)C(C)C)[C@@H](C)O
B3: Compound 20 (peptide)
peptide: Isovaleryl-APAK([Ahx-γGlu-C18 diacid])PEEDASPEELQRYQVSLRHYYNWLTRQRY-NH2
SMILES: CC(C)CC(=O)N[C@@H](C)C(=O)N1CCC[C@H]1C(=O)N[C@@H](C)C(=O)N[C@@H](CCCCNC(=O)CCCCCNC(=O)CC[C@H](NC(=O)CCCCCCCCCCCCCCCCC(=O)O)C(=O)O)C(=O)N1CCC[C@H]1C(=O)N[C@@H](CCC(=O)O)C(=O)N[C@@H](CCC(=O)O)C(=O)N[C@@H](CC(=O)O)C(=O)N[C@@H](C)C(=O)N[C@@H](CO)C(=O)N1CCC[C@H]1C(=O)N[C@@H](CCC(=O)O)C(=O)N[C@@H](CCC(=O)O)C(=O)N[C@@H](CC(C)C)C(=O)N[C@@H](CCC(N)=O)C(=O)N[C@@H](CCCNC(=N)N)C(=O)N[C@@H](Cc1ccc(O)cc1)C(=O)N[C@@H](CCC(N)=O)C(=O)N[C@H](C(=O)N[C@@H](CO)C(=O)N[C@@H](CC(C)C)C(=O)N[C@@H](CCCNC(=N)N)C(=O)N[C@@H](Cc1c[nH]cn1)C(=O)N[C@@H](Cc1ccc(O)cc1)C(=O)N[C@@H](Cc1ccc(O)cc1)C(=O)N[C@@H](CC(N)=O)C(=O)N[C@@H](Cc1c[nH]c2ccccc12)C(=O)N[C@@H](CC(C)C)C(=O)N[C@H](C(=O)N[C@@H](CCCNC(=N)N)C(=O)N[C@@H](CCC(N)=O)C(=O)N[C@@H](CCCNC(=N)N)C(=O)N[C@@H](Cc1ccc(O)cc1)C(N)=O)[C@@H](C)O)C(C)C
B4: Compound 13 (peptide)
peptide: Isovaleryl-APEK([Ahx-γGlu-C18 diacid])PEADASPEETQRYYVSLRHYYNWLTRQRY-NH2
SMILES: CC(C)CC(=O)N[C@@H](C)C(=O)N1CCC[C@H]1C(=O)N[C@@H](CCC(=O)O)C(=O)N[C@@H](CCCCNC(=O)CCCCCNC(=O)CC[C@H](NC(=O)CCCCCCCCCCCCCCCCC(=O)O)C(=O)O)C(=O)N1CCC[C@H]1C(=O)N[C@@H](CCC(=O)O)C(=O)N[C@@H](C)C(=O)N[C@@H](CC(=O)O)C(=O)N[C@@H](C)C(=O)N[C@@H](CO)C(=O)N1CCC[C@H]1C(=O)N[C@@H](CCC(=O)O)C(=O)N[C@@H](CCC(=O)O)C(=O)N[C@H](C(=O)N[C@@H](CCC(N)=O)C(=O)N[C@@H](CCCNC(=N)N)C(=O)N[C@@H](Cc1ccc(O)cc1)C(=O)N[C@@H](Cc1ccc(O)cc1)C(=O)N[C@H](C(=O)N[C@@H](CO)C(=O)N[C@@H](CC(C)C)C(=O)N[C@@H](CCCNC(=N)N)C(=O)N[C@@H](Cc1c[nH]cn1)C(=O)N[C@@H](Cc1ccc(O)cc1)C(=O)N[C@@H](Cc1ccc(O)cc1)C(=O)N[C@@H](CC(N)=O)C(=O)N[C@@H](Cc1c[nH]c2ccccc12)C(=O)N[C@@H](CC(C)C)C(=O)N[C@H](C(=O)N[C@@H](CCCNC(=N)N)C(=O)N[C@@H](CCC(N)=O)C(=O)N[C@@H](CCCNC(=N)N)C(=O)N[C@@H](Cc1ccc(O)cc1)C(N)=O)[C@@H](C)O)C(C)C)[C@@H](C)O
B5: Compound 17 (peptide)
peptide: Isovaleryl-APEK([Ahx-γGlu-C18 diacid])PEEDATPEEIQRYYPSLRHYYNWLTRQRY-NH2
SMILES: CC[C@H](C)[C@H](NC(=O)[C@H](CCC(=O)O)NC(=O)[C@H](CCC(=O)O)NC(=O)[C@@H]1CCCN1C(=O)[C@@H](NC(=O)[C@H](C)NC(=O)[C@H](CC(=O)O)NC(=O)[C@H](CCC(=O)O)NC(=O)[C@H](CCC(=O)O)NC(=O)[C@@H]1CCCN1C(=O)[C@H](CCCCNC(=O)CCCCCNC(=O)CC[C@H](NC(=O)CCCCCCCCCCCCCCCCC(=O)O)C(=O)O)NC(=O)[C@H](CCC(=O)O)NC(=O)[C@@H]1CCCN1C(=O)[C@H](C)NC(=O)CC(C)C)[C@@H](C)O)C(=O)N[C@@H](CCC(N)=O)C(=O)N[C@@H](CCCNC(=N)N)C(=O)N[C@@H](Cc1ccc(O)cc1)C(=O)N[C@@H](Cc1ccc(O)cc1)C(=O)N1CCC[C@H]1C(=O)N[C@@H](CO)C(=O)N[C@@H](CC(C)C)C(=O)N[C@@H](CCCNC(=N)N)C(=O)N[C@@H](Cc1c[nH]cn1)C(=O)N[C@@H](Cc1ccc(O)cc1)C(=O)N[C@@H](Cc1ccc(O)cc1)C(=O)N[C@@H](CC(N)=O)C(=O)N[C@@H](Cc1c[nH]c2ccccc12)C(=O)N[C@@H](CC(C)C)C(=O)N[C@H](C(=O)N[C@@H](CCCNC(=N)N)C(=O)N[C@@H](CCC(N)=O)C(=O)N[C@@H](CCCNC(=N)N)C(=O)N[C@@H](Cc1ccc(O)cc1)C(N)=O)[C@@H](C)O

These binders were tested against T1, human NPY2 receptor (human, UniProt P49146 1-381) (assay: RLB: displacement of 125I-PYY(1-36) from hNPY2R membranes).
T1 construct: whole, on cells; also called hNPY2-R; hNPY2R
T1 sequence (looked up): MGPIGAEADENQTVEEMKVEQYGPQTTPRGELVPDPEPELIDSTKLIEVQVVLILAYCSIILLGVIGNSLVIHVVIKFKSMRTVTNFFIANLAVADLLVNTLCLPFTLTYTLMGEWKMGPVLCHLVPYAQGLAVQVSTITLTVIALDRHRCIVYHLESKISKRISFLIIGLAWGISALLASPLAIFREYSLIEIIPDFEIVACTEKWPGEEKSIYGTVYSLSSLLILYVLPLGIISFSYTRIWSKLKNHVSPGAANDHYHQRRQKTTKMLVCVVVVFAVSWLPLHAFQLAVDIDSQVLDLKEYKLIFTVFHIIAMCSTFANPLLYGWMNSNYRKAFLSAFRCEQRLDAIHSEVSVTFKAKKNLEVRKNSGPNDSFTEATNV
Experimental: The filtration RLB assay was carried out in 96-well plates in a final volume of 100 μl per well. Freeze-dried test peptides were dissolved in 100% dimethyl sulfoxide (DMSO) to stock solutions of 1 mM and serial dilutions were performed in assay buffer (50 mM HEPES, 5 mM MgCl₂, 1 mM CaCl₂), pH 7.4) containing 0.2% ovalbumin. […] Next, 80 μL membranes (HTS066M, ChemiSCREEN™ Human Neuropeptide Y2 Receptor Membrane Preparation, CHEMICON) were added to each well to give a final protein concentration of 0.5 μg/well. The plates were sealed and incubated at room temperature for 2 hours in a plate shaker set at 400 rpm. The incubation was stopped by vacuum filtration onto 0.5% polyethylene amine (PEI) presoaked GF/C filters using a 96-well FilterMate™ harvester (Perkin Elmer) followed by four washes with 300 μl/well ice-cold wash buffer (50 mM HEPES, 500 mM NaCl, pH7.4). Filter plates were then dried for 60 min at room temperature and the bottom of the plates was sealed with backing tape UniFilter-96. Finally, 50 μl/well scintillation counter cocktail (Microscint20, Packard) was added and the radioactivity was counted in the Packard TopCount NXT scintillation counter. IC₅₀ values (the half maximal inhibitory concentration of the agonist) were calculated by nonlinear regression analysis of sigmoidal dose-response curves.

First: B1
Second: B2
The Ki of the first is 2.9-fold lower: 3.32 nM for the first, 9.63 nM for the second. The first binds more tightly here.

Compared with B3, B4 is 1.6-fold lower in Ki: 2.41 nM for the first, 1.53 nM for the second. The second binds more tightly here.

Binder B5 has a Ki of 24.6 nM.
